B1: Chromodomain-helicase-DNA-binding protein 5, residues 338 to 390; numbered along this chain, Q8TDI0 (parent)
chain: YETDHQDYCEVCQQGGEIILCDTCPRAYHLVCLDPELEKAPEGKWSCPHCEKE
B2: SWI/SNF complex subunit SMARCC1, residues 620 to 663; numbered along this chain, Q92922 (parent)
chain: GREWTEQETLLLLEALEMYKDDWNKVSEHVGSRTQDECILHFLR

Variants of: B1
Test: abundance fitness (aPCA) (normalised: wild type 0, dead -1); higher = more abundant; growth selection in yeast, the domain comes from the species named
Conditions: Homo sapiens

Abundance fitness of substitutions, site by site:
Q13: F -0.258 | N 0.029 | R 0.163 | S 0.157 | W -0.104 | I -0.204 | A -0.034 | C -0.076 | M 0.002 | P -0.097 | G 0.18 | H -0.268 | L -0.109 | T -0.185 | Y -0.198 | D -0.191 | V 0.056 | E -0.091 | K -0.233
C12: G -0.752 | V -0.759 | N -0.318 | Q -0.79 | W -1.02 | Y -0.891 | I -0.912 | A -0.688 | K -0.652 | M -0.671 | E -0.866 | R -1 | F -0.788 | H -0.539 | T -0.776 | P -0.901 | S -1.04 | L -0.901
D4: C 0.128 | M 0.627 | P -0.049 | H -0.056 | T -0.008 | Y -0.337 | W -0.014 | Q 0.368 | L 0.095 | R 0.054 | N 0.106 | F 0.04 | K 0.073 | E 0.081 | V 0.117 | A 0.244 | I 0.03 | G 0.001
T3: G 0.342 | F 0.275 | H -0.407 | K 0.264 | Q 0.05 | R 0.119 | C -0.267 | N -0.37 | I 0.465 | V 0.027 | D 0.023 | Y 0.171 | M 0.567 | E 0.268 | S 0.077 | W 0.236 | A 0.098
C9: M -0.803 | A -0.726 | K -0.804 | W -1.08 | N -0.764 | R -0.752 | S -0.809 | D -0.618 | E -0.611 | Q -1.04 | Y -0.489 | T -0.643 | L -0.844 | H -0.397 | F -1.18 | P -0.558 | G -0.593 | V -1.07 | I -0.774
Q14: H -0.105 | I -0.385 | N -0.065 | V -0.107 | R -0.019 | T 0.193 | D -0.004 | F -0.295 | M 0.084 | C -0.378 | A -0.093 | W -0.237 | L -0.011 | S 0 | G 0.118 | P -1.04 | Y -0.001
Y1: F -0.041 | V 0.159 | G 0.239 | E 0.321 | R 0.063 | N -0.336 | S -0.481 | K 0.125 | C 0.245 | W 0.122 | D -0.839
Q6: W -0.421 | A 0.193 | C -0.153 | R -0.183 | Y -0.422 | F -0.234 | L -0.286 | S -0.047 | D -0.199 | E -0.186 | G -0.313 | P 0.25 | H -0.286 | V -0.199
E2: K 0.529 | W -0.092 | F 0.018 | L 0.287 | R 0.267 | I 0.814 | M 0.789 | N 0.405 | G 0.072 | T 0.488 | V -0.484 | H 0.022 | C 0.423 | A -0.071 | P -0.175 | S 0.451
H5: K 0.021 | C 0.394 | F -0.144 | G 0.185 | P 0.124 | W -0.038 | L 0.375 | T 0.116 | R 0.192 | E 0.024 | Q -0.046 | D -0.81 | S 0.293 | M 0.497 | V 0.464 | I 0.079 | N -0.072 | A 0.488
D7: E -0.255 | M 0.167 | A -0.045 | S -0.257 | C -0.669 | G -0.252 | Y -0.676 | K -0.313 | N -0.129 | H -0.296 | V 0.096 | W -0.613 | Q 0.176 | F -0.725 | L -0.527 | R -0.154 | T 0.112 | I -0.317
V11: G 0.376 | L 0.245 | D 0.018 | Y 0.033 | N -0.013 | P 0.061 | M 0.459 | S 0.27 | H 0.691 | T 0.341 | A 0.095 | W -0.038 | K 0.481 | E 0.397 | C 0.179
Y8: M 0.102 | H 0.349 | R 0.211 | A 0.142 | I 0.241 | T -0.088 | W -0.111 | S 0.014 | C -0.337 | V 0.054 | E 0.306 | Q 0.437 | K -0.067 | P 0.33 | F -0.204 | L 0.06 | G 0.078 | N 0.227 | D -0.199
G15: T -0.014 | D -0.167 | N 0.116 | A 0.176 | R 0.141 | P -0.553 | C 0.021 | M 0.143 | K 0.155 | E -0.112 | L -0.209 | I -0.414 | Q -0.103
E10: Q 0.024 | H -0.394 | M -0.07 | C -0.001 | K 0.2 | G 0.015 | S -0.112 | L 0.175 | F 0.256 | D -0.14 | I 0.188 | N 0.338 | Y 0.209 | W 0.234 | T -0.004 | R 0.043 | A -0.064

Variants of: B2
Test: as above
Conditions: Homo sapiens

Abundance fitness: each site, then its substitutions
F42: N 0.429 | T -0.007
H41: S -0.357 | R -0.019
S27: A 0.168 | V 0.039 | D -0.558
K25: C -0.064 | S -0.011 | D -0.331 | G -0.038
L10: Q 0.251
R2: E 0.145 | C 0.084 | D 0.237
Q7: G -0.052 | T 0.075
L13: A 0.285
H29: F -0.201
W4: C -0.526 | Y -0.23 | V -0.147
Q35: S 0.073 | Y -0.166 | G 0.056
A15: Q -0.72 | V -0.886 | F -0.616
L43: E 0.582 | Q 0.645
I39: R 0.456 | Y 0.117
E8: Q -0.098 | C -0.616
G31: N -0.259 | I -0.174 | Y -0.487 | F -0.375 | W -0.543
K20: W -0.737 | I -0.019 | Q -0.278 | D -0.062
L40: H 0.201 | D 0.319 | M 0.057
E14: G -0.27 | M -0.267
E17: T -0.175 | W -0.716 | C -0.763
D21: K 0.294
E6: T -0.12
M18: W -0.2 | F -0.1
E37: L -1.08 | A -0.283
V30: T -0.419
E28: M -0.8 | N -0.21 | T -0.084
G1: D 0.277 | H -0.147
R33: C -0.944
T9: E -0.037 | A -0.085 | F 0.004
L16: D -0.237 | H 0.303 | N 0.136 | M 0.235 | G -0.05
W23: I -0.255
C38: W -0.79
D22: S 0.04
S32: M -0.083 | K 0.05 | Y -0.182
T34: E 0.314
L12: K -0.428 | F 0.016
Y19: R -0.55 | D -0.218 | E -0.216
T5: C -0.14

Source: the Human Domainome abundance scans (Beltran et al. 2025)
